According to ChEMBL document CHEMBL1157628, “Carbonic anhydrase activators. The first activation study of a coral secretory isoform with amino acids and amines” (Bioorg Med Chem, 2010):

Legend:
[1] = substrate: N[C@@H](Cc1c[nH]c2ccccc12)C(=O)O; assay: (§1) Activity of human full length CA6 at 10 uM by stopped flow CO2 hydration assay
[2] = substrate: N[C@H](Cc1c[nH]c2ccccc12)C(=O)O; assay: as §1

B1: Carbonic anhydrase 6 (Homo sapiens), P23280 (protein)
chain: MRALVLLLSLFLLGGQAQHVSDWTYSEGALDEAHWPQHYPACGGQRQSPINLQRTKVRYNPSLKGLNMTGYETQAGEFPMVNNGHTVQISLPSTMRMTVADGTVYIAQQMHFHWGGASSEISGSEHTVDGIRHVIEIHIVHYNSKYKSYDIAQDAPDGLAVLAAFVEVKNYPENTYYSNFISHLANIKYPGQRTTLTGLDVQDMLPRNLQHYYTYHGSLTTPPCTENVHWFVLADFVKLSRTQVWKLENSLLDHRNKTIHNDYRRTQPLNHRVVESNFPNQEYTLGSEFQFYLHKIEEILDYLRRALN
With B1 the kcat [1] was 9.5 ×10⁵ /s and the kcat [2] was 4.8 ×10⁵ /s.
